Sequences and labels used below:
B1: Recombinant wild-type L-chain ferritin from horse spleen (natural protein, UniProt P02791 1-175, looked up)
chain: MSSQIRQNYSTEVEAAVNRLVNLYLRASYTYLSLGFYFDRDDVALEGVCHFFRELAEEKREGAERLLKMQNQRGGRALFQDLQKPSQDEWGTTLDAMKAAIVLEKSLNQALLDLHALGSAQADPHLCDFLESHFLDEEVKLIKKMGDHLTNIQRLVGSQAGLGEYLFERLTLKHD
B2: Fr-A115T (natural protein, horse, UniProt P02791 1-175, looked up)
chain: MSSQIRQNYSTEVEAAVNRLVNLYLRASYTYLSLGFYFDRDDVALEGVCHFFRELAEEKREGAERLLKMQNQRGGRALFQDLQKPSQDEWGTTLDAMKAAIVLEKSLNQALLDLHTLGSAQADPHLCDFLESHFLDEEVKLIKKMGDHLTNIQRLVGSQAGLGEYLFERLTLKHD
B3: Fr-S118A (natural protein, horse, UniProt P02791 1-175, looked up)
chain: MSSQIRQNYSTEVEAAVNRLVNLYLRASYTYLSLGFYFDRDDVALEGVCHFFRELAEEKREGAERLLKMQNQRGGRALFQDLQKPSQDEWGTTLDAMKAAIVLEKSLNQALLDLHALGAAQADPHLCDFLESHFLDEEVKLIKKMGDHLTNIQRLVGSQAGLGEYLFERLTLKHD
B4: Fr-H114A (natural protein, horse, UniProt P02791 1-175, looked up)
chain: MSSQIRQNYSTEVEAAVNRLVNLYLRASYTYLSLGFYFDRDDVALEGVCHFFRELAEEKREGAERLLKMQNQRGGRALFQDLQKPSQDEWGTTLDAMKAAIVLEKSLNQALLDLAALGSAQADPHLCDFLESHFLDEEVKLIKKMGDHLTNIQRLVGSQAGLGEYLFERLTLKHD
B5: Fr-A115V (natural protein, horse, UniProt P02791 1-175, looked up)
chain: MSSQIRQNYSTEVEAAVNRLVNLYLRASYTYLSLGFYFDRDDVALEGVCHFFRELAEEKREGAERLLKMQNQRGGRALFQDLQKPSQDEWGTTLDAMKAAIVLEKSLNQALLDLHVLGSAQADPHLCDFLESHFLDEEVKLIKKMGDHLTNIQRLVGSQAGLGEYLFERLTLKHD
B6: Fr-A115G (natural protein, horse, UniProt P02791 1-175, looked up)
chain: MSSQIRQNYSTEVEAAVNRLVNLYLRASYTYLSLGFYFDRDDVALEGVCHFFRELAEEKREGAERLLKMQNQRGGRALFQDLQKPSQDEWGTTLDAMKAAIVLEKSLNQALLDLHGLGSAQADPHLCDFLESHFLDEEVKLIKKMGDHLTNIQRLVGSQAGLGEYLFERLTLKHD

This data set concerns the molecule itself. Description: crystal structure.
Consider B1, for which the “stoichiometry N” value came out at 24.
In the case of B2, the binding result is listed as “binds”.
Regarding B3, the binding result is given as “binds”.
On the same count and under the same terms, the value for B4 was “binds”; that for B5 was “binds”; that for B6 was “binds”.

(Values after doi:10.1101/2023.06.21.546005 (bioRxiv, 2023).)
